From US20120039865A1, “IDENTIFICATION OF SORTILIN AS A NEURONAL RECEPTOR FOR THE FRONTOTEMPORAL DEMENTIA PROTEIN, PROGRANULIN” (Yale University, priority 2008, published 2012)

Target: endogenous mouse sortilin (Sort1) of mouse brain lysate, mouse cortical neurons and mice in vivo (mouse) (UniProt Q6PHU5)
Assay: cell-based or functional assay

Sequence of endogenous mouse sortilin (Sort1) of mouse brain lysate, mouse cortical neurons and mice in vivo (mouse) (Q6PHU5 74-825 limits assumed): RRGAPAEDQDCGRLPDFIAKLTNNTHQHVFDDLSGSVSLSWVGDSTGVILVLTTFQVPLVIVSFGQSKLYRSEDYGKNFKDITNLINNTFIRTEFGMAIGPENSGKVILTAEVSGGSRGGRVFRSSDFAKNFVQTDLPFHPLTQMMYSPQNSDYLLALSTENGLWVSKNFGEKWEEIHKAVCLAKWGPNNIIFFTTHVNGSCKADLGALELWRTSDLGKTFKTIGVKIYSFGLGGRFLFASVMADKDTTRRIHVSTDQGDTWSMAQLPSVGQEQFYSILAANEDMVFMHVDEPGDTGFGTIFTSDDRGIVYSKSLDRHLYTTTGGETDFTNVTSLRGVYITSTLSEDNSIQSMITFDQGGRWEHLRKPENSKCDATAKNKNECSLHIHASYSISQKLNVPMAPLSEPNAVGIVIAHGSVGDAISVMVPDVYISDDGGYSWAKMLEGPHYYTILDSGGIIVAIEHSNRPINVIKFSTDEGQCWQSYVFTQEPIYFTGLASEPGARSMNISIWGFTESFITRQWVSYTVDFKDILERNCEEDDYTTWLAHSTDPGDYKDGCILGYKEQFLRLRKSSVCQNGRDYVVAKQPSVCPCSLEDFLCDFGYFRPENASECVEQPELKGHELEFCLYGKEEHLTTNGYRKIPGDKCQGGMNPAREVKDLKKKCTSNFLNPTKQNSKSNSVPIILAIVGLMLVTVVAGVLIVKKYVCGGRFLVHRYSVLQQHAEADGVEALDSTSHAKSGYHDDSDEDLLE

fold-increase in PGRN level in brain of sortilin -/- mice: 3 fold | fold-increase in PGRN level in serum of sortilin -/- mice (immunoblot): 4 fold
Substance: endogenous mouse PGRN (serum and brain of mice) (from UniProt P28798 18-589) (ligand)
